Target: T1, human CD73 expressed on the cell surface (human, UniProt P21589 27-549)
T1 construct: whole, on cells; also called surface CD73
T1 sequence (looked up): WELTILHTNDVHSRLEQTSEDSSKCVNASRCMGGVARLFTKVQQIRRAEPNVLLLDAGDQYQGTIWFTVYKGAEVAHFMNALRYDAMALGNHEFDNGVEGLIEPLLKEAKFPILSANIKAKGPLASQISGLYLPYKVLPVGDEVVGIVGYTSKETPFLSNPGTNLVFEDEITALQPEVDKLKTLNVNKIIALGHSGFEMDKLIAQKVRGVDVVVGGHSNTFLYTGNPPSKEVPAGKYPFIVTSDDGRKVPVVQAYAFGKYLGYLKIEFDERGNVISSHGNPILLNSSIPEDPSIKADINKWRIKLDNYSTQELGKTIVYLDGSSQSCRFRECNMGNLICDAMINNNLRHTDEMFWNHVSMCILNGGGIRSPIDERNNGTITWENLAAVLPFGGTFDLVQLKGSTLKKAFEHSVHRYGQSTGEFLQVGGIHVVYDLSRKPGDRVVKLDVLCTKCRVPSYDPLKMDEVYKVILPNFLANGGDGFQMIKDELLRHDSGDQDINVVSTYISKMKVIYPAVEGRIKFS
Assay: flow cytometry, biotinylated antibody in human whole blood, CD8+ T cells, streptavidin-APC
Protocol: Whole blood target engagement was assessed by flow cytometry using whole blood from healthy human donors. Briefly, biotinylated antibodies were incubated with whole blood for 30 minutes prior to red blood cell lysis and fixation. Fixed cells were stained for CD3 and CD8 to identify CD8+ T cells, and streptavidin-APC to detect biotin. After staining, the cell were washed and subjected to flow cytometry analysis.

- EC50 (read off the curve): ~6 ng/mL
B1: anti-CD73 antibody 356.B (antibody, human IgG4 S228P, kappa, V domains shown)
VH: QVQLQESGPGLVKPSETLSLTCTVSGGSIEGRYWSWIRQPPGKGLEWIGYIYGSGSTKYNPSLKSRVTISVDTSKNQFSLKLSSVTAADTAVYYCARESQESPYNNWFDPWGQGTLVTVSS
VL: DIQMTQSPSSVSASVGDRVTITCRASQGISSWLAWYQQKPGKAPKLLIYAASSLQSGVPSRFSGSGSGTDFTLTISSLQPEDFATYYCQQGNSFPRTFGGGTKVEIKR
notes: IgG4 S228P/L235E format; The last heavy chain residue X is K or absent; Biotinylated in the whole blood flow cytometry assay
